Article PMC9977294, “A parasitic fungus employs mutated eIF4A to survive on rocaglate-synthesizing Aglaia plants”

Tests used:
eIF4A1 Phe163His = eIF4A1 Phe163His (Homo sapiens, UniProt P60842 1-406, F163H); experiment: fluorescence polarization; 1 mM AMP-PNP, DMSO; 20 mM HEPES-NaOH pH 7.5, 150 mM NaCl, 1 mM MgCl2, 1 mM DTT, 5% glycerol, 1% DMSO, 10 nM FAM-RNA, 0-25 uM protein (source data up to 50), 1 mM AMP-PNP or 1 mM ADP + 1 mM Na2HPO4, room temperature 30 min; Hill fit, n = 3; settings: protein: recombinant; tags: His; single strand
eIF4A1 Phe163Gly = eIF4A1 Phe163Gly (Homo sapiens, UniProt P60842 1-406, F163G); experiment: as above; settings: protein: recombinant; tags: His; single strand
Chain of eIF4A1 Phe163Gly (P60842 whole entry F163G): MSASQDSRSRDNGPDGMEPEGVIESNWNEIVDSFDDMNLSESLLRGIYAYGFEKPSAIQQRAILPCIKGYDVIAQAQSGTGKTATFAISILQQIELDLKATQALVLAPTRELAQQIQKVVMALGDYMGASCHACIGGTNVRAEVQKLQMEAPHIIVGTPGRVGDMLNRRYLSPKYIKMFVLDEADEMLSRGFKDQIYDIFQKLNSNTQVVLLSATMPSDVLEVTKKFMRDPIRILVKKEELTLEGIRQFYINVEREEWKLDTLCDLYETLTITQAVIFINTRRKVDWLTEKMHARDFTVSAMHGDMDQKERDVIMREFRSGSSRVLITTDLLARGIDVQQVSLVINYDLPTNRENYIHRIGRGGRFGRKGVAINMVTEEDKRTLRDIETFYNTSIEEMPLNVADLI

Chain of eIF4A1 Phe163His (P60842 whole entry F163H): as the sequence (P60842 whole entry F163G) above, with G163H counted along it

AGAGAGAGAGAGAGAGAGAG (ssRNA) [[AG]10 polypurine RNA]
Kd (eIF4A1 Phe163His): 16 ± 2.7 µM | Kd (eIF4A1 Phe163Gly): 21 ± 6.7 µM
